# Results from the DeepSol protein solubility set.
# Experiment: soluble on expression in E. coli; label from the status in PepcDB or PDB records
row,Sequence,soluble on expression in E. coli
1,MGSDKIHHHHHHMNIRTLAAYMVFQCVFLISWSQDLKRVQKTITTLTSKTYHGRGAASNGDGLAAAYLEKQYKETGLKPVDTNFLQPFTYAINTFPGKMKLKSNLGVFKPGIDYIVKSTSGPGKGTCDVYLVDTLIFTDDGKLKEFLQLDVTALVVVYPKKYFKEFTASTPDLLKQLYSAAAIIELQDKKLTMALADQSFGTPVFEVLTTSFSPDIKTISFEIENELIKKHQANNVIGMIEGRSKKDSFIVLTAHYDHLGTLGRKAYFPGANDNASGVSMLLEFAHYYMENPPEYSMLFIAFAGEESGLLGSSYFVAHPLVPLAGIHFLINLDLLGTGDDGIMVVNGSVFKPAYNRLIAINEEKKLLPAIKMRGEAANSDHYPFYKKGVPCFFIYTLGGVAAYHDVQDVAKTLPLTKYREVFQLIVLFNGEK,not soluble
2,MGSDKIHHHHHHMRIVNDVKKILFLAANPQNTVRLRLDKEVEEIRTTLQLSVNRDRFVIESRGAVRPDDLQQYMYNLKPQIVHFSGHGGGEYGLAFEDENGAEQPVSTDALAKFFQLFAGEVNCVVLNACYASVQAEAIAQYIPYVVGMNQAIGDEAARQFAQGFYRAIWDNRSIEDAFASGVNAIALDGIPEDLTPVLLRQADRVTTQTIPSNSVSLESPDGQVRIDSRFYVHSSYEERCYAEVKKPGSLIRIKSPHNMGKSSLMVRVLGYAAQLGYRTVTLNLEQVNQKFFNDLDKYMQWFCASVGKPLGVRIKIEEYWDDIFGANDNSTDYFEKYLLDDTEPPLVVAIDNFDRVFKYPDIETDFCGLLRGWHERSRSNQLWGKLRFVIVYSQEPYLQKDINQSPFNVGLPIELGEFTTAQVQELIRLHGLDWSGQFVKQFMDLIGGHPYLVRSALYHIAAGDLTLEEFLRTAPTEAGIYSDYLLGHLKSLEDYPTLGAAMKTVVTSEFPVRLRSEEAFRVWLCGLRITSSPDANCIVNIFAIA,not soluble
3,MDGNQYEAIFLNYFRGIFPNADNLNVKCVKRMSEQQMKTTISRHGMRCTVLNGKDKISSYTVKKIVETPGKREYYGVRDIFAFKLLDMMGVGPKVHFVSNGEVGDDVGLFIVTEDD,not soluble
4,MGSDKIHHHHHHMTTLISFLGKGIADKTTGYRTATYRFDDDSKHTTPYFGLALAGYLRPERLILVGTAGSMWDVFFEQQDASDDDVLALIDAVRESRVDADMLSAQEKRLTKRLGLPVICRLIPYARDAAEQTEVLLTLAKLVHRSEEVFLDVTHGFRHLPMLALVAARYLAHVKDVKVRGLYYGALEMTSTNGETPVLQLDGMLQMLDWVESLATYNKDGDYGVFASLLQQDGLPEGKAKQLTRAAYFERSSNPVKARETLGSVFSAIKTHNGPMGVLFRDALTERINWFKEPDRAAWELALADAYLERRDYVRAVIYLYESFVTRAVLEHKLNPNDFSERDEAWKDARQDNKQVRKLEYLRNALAHGIKSDDKEIIRMVNDENCLDDQLKKFRRSLFN,not soluble
5,MTILPVKKKREKDSQQRSVSTIGSSAENSRQQLSGPSCSSSASSSSSAAKRIRSQEDGPPSKRWVLSASSTSSTNKSPIPSSSPVLPPPQPEIEPNRSQSPGNADYNSDDEYEMQNIRDDEIETEFSNRLAARGLIIKEMVGDGACMFRSIAEQIYGDQEMHGQIRRLCMDYMSNNRDHFKEFITENFENYIQRKREENVHGNHVELQAISEIKKKSNYILKNSLHSINSEPINVLLPRPEPEATALTDGSASTSNAAPPPSTVPIQQNPPLRLSYHRAVHYNAILAPNIPTIGIGLGLPGMIPGSADKELMSTAMKTSELEHIEETMLQDKIDMTDFQRTQADIEDQITRESLISYLNDFEKSKNAPSTSAGAPGPSNFSGEPPVSGSGLYEEMLAAQSLEWDAYTDDVAIAEAMLVSQQDYMSNKPSTSSSGSGPSTSE,not soluble
6,MGSDKIHHHHHHMETVNILGTGSAMVTKCYNTCFTLSNGDEHFLVDTGGGNTILTNLEKLHIGIDKIHNVFISHRHNDHITGIIWIIRAVAQRIINGKYDGDLKIYCCKENIEVINTICKLLLEKKFTKYMGNRIVFSEIYDGCRLKVLDWDIEFFDIKSTKQLQFGFTTVLKSGKKLTFLGDEPYRENLYEYANNSDYIFHEAFCLYSEKDIFKPYEKHHATVKDACENADKLSVKNIILYHTEDKNIEKRKELYIGEGSKFFKGNIIVPDDLETIELK,not soluble
7,GMEQQHPTIHTLKIETEFFKAVKERRKTFEIRKNDRNFQVGDILILEEYMNGMYLDDECEAEVIYITDYAQREGYVVLGIELH,soluble
8,MNSQDAQNQVPPQKVDQEVDRLALMARAHQAIGELSDILVPLAAAFSSKGHSLYLVGGSVRDAFLGELGHDLDFTTSARPEETKAILDDYADVVWDTGIAFGTLSAEKHGQQIEITTFRSDLYDGNSRNPEVTFGDTLEGDLIRRDFKVNAMAVEIQADGELTFHDPVGGLEDLLTHTLDTPATPEQSFNDDPLRMLRAARFVSQLNFTLAPRVITAMTEMAQQITRITVERMQVELDKMILGKNPEAGIDLMVESGIAQIIYPEIPAMQMTQDEHMQHKDVYAHSLQVMRQAIDQEEDGPDLVLRWAALLHDCGKPDTRDFNEEGRVSFHQHEVVGAKLVRRRMRKLKYSKQMVGDVGQLVFLHMRFHGFSEGQWTDSAVRRYAADAGELLPRLHKLVRADCTTRNKRKAARLQATYDHLEERIAEIAAKEDLARVRPDLDGNEIMEILNIQAGPEVGKAWAFLKELRLERGPLDREVAIAELKSWWEGENNE,not soluble
9,MEHKKSTDSRSCSQLSTSMDNIQRNLMLLEIEKNEKSSFDDVITGAESDNGWEDCLRETESVQSQWITEQSTIAYPETTRVNCDGPQSYYELADLNYKPAENTVRLARVPSQYQLDALSEIFVFDVPQHIAVKKVEASFLPKYVNTSSEVAQNSVNTTPYFVNSEYVSEMLCNEYSETY,not soluble
10,MGSDKIHHHHHHMRKPRVFIGSSVESLPIADAIAENLEFDAEVTIWRNGTFNLSSNALDDLISKAKSVDFSIFIFSPDDLTIMKSREKYAVRDNVVFELGLFIGAIGKNRCFIVKPRDVDLHFPSDLLGITPTDFDANRSDEDLASSLNYSATQIKRAFKAQGLLELDSVQEKPRIDVNAQLATLTDTDMIALSVLLESVNSDVDGCASWDLYNRFNNYDFSSAQVNLAVIKLTRSGMIEKLNTSDFNGNEYFSYKLTEYGIDVCLSNQNRIETLIAPKKRQSGRDVPQQPPVRS,not soluble
11,MSLKTYDAFPEPIGGYTVGRTQMDFEYTASDHSKRELTAFVYYPSDSSEGKTTSTYMFPEVYEMFNEQPLVTALKDVFSIDIKTQCYDDLALSGKEKRYPVLFYVCGGGGSPEWGTVICTDLASMGYVVVSIGHQNSTMYKRKDGRLFNVSKDFSDVIMAFSEDPEMLALAGKMEMRPDDETAIEMCHNVLTLPILAKLTEYSELQAEDVRYVADYLYKLDSGELNSIFKGRLLLDIGMGIVGHSYGGPTTAIVCRDDDRFACGIGLDSGAFGLLDSDLKKPFLLLFCEPNYNMNAIIGANNSMETYYFSVDRVAHLDYCDIVFTSVNEELRGERDAMEMRNLVTDYTKNFFDHYILLKAASVESLAYDGVDLIKKTSNKEGHHHHHH,soluble
12,MGSDKIHHHHHHMYRVIELGHVISAPFAGEILRHLGFEVIKIEPLLGDPSRKDDVLVDSMFVFNNRGKRSISVDLRKEKGKEVFLRLVRNSHVLIENLSPHVMDRLGLSDDVIFSTNPSLVYCSIKGYPKGKYENLPAFGTIIEAESGIMDANGKARLPASITDMNASTYCVITILWALLMKKPGHYRVSIIQANTVWLGYYLIAYQKYGKLFEAGKDELPFWAPYELFKSSEEKEFYLAVNDNEKFTKLCKALGLEDLLADERFKTNADRVRNRKILHEKLQQKFSSMKLEEIMNILRYNDIPVGKLNNLKDLISNELVEWDTFRNVQVPKLPLPGSLNSQHVPNVGEDTLYILKELGYSENEIESMIKENVINYNK,not soluble
13,MLAHIKITHFAIVKSLELDLTKGMTTITGETGAGKSIAIDALGLCLGDRAEASMVRQGEEKAEITVLFTLENNINAKRWLEDNELYDGNDCILRRVITKEGRSRGFINGSPVPAAQLKTLGHLLINIHGQHAHHELMKPEYQLNMLDQYAGHVSLLNKTRSRYQAWRQA,not soluble
14,MKKITINDLMKWKQEGRKFATSTAYDASFAQLFESQEMPVLLVGDSLGMVLQGETDTLPVTVDDIAYHTRCVRKGSPNCLLMADMPFMSYATPEQACENAAKLVRAGANMVKIEGGDWLVDTVKMLTERAVPVCAHLGLTPQSVNIFGGYKVQGREQDKADRMVRDALALQEAGAQIVLLECVPAELANRITQILDVPVIGIGAGNGTDGQILVMHDMFGISANYMPKFSKNFLAETGDIRQAVAKYIEDVASGAFPDLAHTIALEHHHHHH,soluble
15,MYSKIIERELETLKTIFQEASRANTHYEFISVVGKAVSEFLGSEGYRIEWDGRGSAKGNEVVLEIRINTYAKVNLYFPLKKGRKLSKVEEEFLKFVKEVSERIAEKITSYTIYKTLLDSYPFVAYLVEAEPPYPQKILYVTPSLEKWLGWKPEEISKDW,not soluble
16,MGSDKIHHHHHHMSNLSLDFSDNTFQPLAARMRPENLAQYIGQQHLLAAGKPLPRAIEAGHLHSMILWGPPGTGKTTLAEVIARYASADVERISAVTSGVKEIREAIERARQNRNAGRRTILFVDEVHRFNKSQQDAFLPHIEDGTITFIGATTENPSFELNSALLSRARVYLLKSLTTDDIEQVLDQAMQDKTRGYGDQDIVLPDETRRAIAELVNGDARRALNTLEMMADMAEADDSGKRVLLPALLTEIAGERSARFDNKGDRFYDLISALHKSVRGSAPDAALYWYARIITAGGDPLYVARRCLAIASEDVGNADPRAMQVAIAAWDCFTRVGPAEGERAIAQAIVYLACAPKSNAVYTAFKAALADARERPDYDVPVHLRNAPTKLMKEMGYGQEYRYAHDEPNAYAAGEVYFPPEIAQTRYYHPTNRGLEGKIGEKLAWLAEQDQNSPTKRYR,not soluble
17,MSSPTSLEEDGDIKLKTRFQGQVVVLYARPPLILDDFFALLKDACKQHKKQDITVKWIDEDGDPISIDSQMELDEAVRCLNSSQEAELNIHVFVGKPELPGLPCQGEDKTVYRRGARRWKKIYLYNGHRFQAKRLNRRIQCFICHDYIWGIGRQGFRCVDCRLCVHKKCHRHVRTHCGQALQGPNIIPMAPASGSLKGARSNTSSSTTRSGGGIDNGAFHEHEIESPGSTSHDASRAMNGNGSSKWAVSLNDFRLLTVIGRGSYAKVVQAEHVSTRQIYAIKIIKKEMFNEDEDIDWVQTEKSVFEAASNYPFLVGLHSCFQTESRLFFVIEFVPGGDLMFHMQQQRKLPEEHARFYSGEIILALHFLHSRGIIYRDLKLDNVLIDAEGHIKLTDYGMCKENIKDGDLTSTFCGTPNYIAPEILRGDEYGFSVDWWALGVLMFEMMAGRSPFDIVGMQNSEENTEDYLFQIILERQIRIPRSLSVRASGILKGFLNKDPTERLGCKLDINEGLRDMKEHQFFRGFIDWEALEQKAVAPPYHPAVESDRDLTHFDHQFTDELPQLSPDNPDVIARIDQSEFDGFEYVNPLQMSREDSV,not soluble
18,MGSDAKNLMSDGNVQIVKTGEVIGATQLTEGELIVEAGGRAENTVVTGAGWLKVATGGIAKCTQYGNNGTLSVSDGAIATDIVQSEGGAISLSTLATVNGRHPEGEFSVDKGYACGLLLENGGNLRVLEGHRAEKIILDQEGGLLVNGTTSAVVVDEGGELLVYPGGEASNCEINQGGVFMLAGKASDTLLAGGTMNNLGGEDSDTIVENGSIYRLGTDGLQLYSSGKTQNLSVNVGGRAEVHAGTLENAVIQGGTVILLSPTSADENFVVEEDRAPVELTGSVALLDGASMIIGYGAELQQSTITVQQGGVLILDGSTVKGDSVTFIVGNINLNGGKLWLITDAATHVQLKVKRLRGEGAICLQTSAKEISPDFINVKGEVTGDIHVEITDASRQTLCNALKLQPDEDGIGATLQPA,soluble
